Experiment [1] deals with T1, 提取于人血浆的胱抑素C (native human cystatin C, HyTest) (human, UniProt P01034 27-146).
T1 construct: mature; also called CysC; 天然CysC蛋白
T1 sequence (looked up): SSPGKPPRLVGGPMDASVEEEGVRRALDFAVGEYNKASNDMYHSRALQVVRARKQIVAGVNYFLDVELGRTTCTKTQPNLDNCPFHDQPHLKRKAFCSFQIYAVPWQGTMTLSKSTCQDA
In words: indirect ELISA, CysC (HyTest) coated at 1 μg/mL, hybridoma supernatant, HRP goat anti-mouse IgG. A general note: In an ELISA, binding on a coated surface is turned into a signal by an enzyme label.

The target in experiment [2] is T1, 提取于人血浆的胱抑素C (native human cystatin C, …). The experiment in a line: Western blot of native CysC (HyTest) with HRP-labelled scFv.

The record followed here is CN107383198A (ZONHON BIOPHARMA INST INC, dated 2017).

B1: 抗体M12 (antibody secreted by hybridoma cell line M12) (antibody, V domains shown)
VH: QVQLQQPGSELVRPGTSVKLSCRASGYTFTSYWMHWVKQRHGQGLEWLGNVDPGSGTTNYEENFKTKGTLTVDTSSSTVYMHLSSLTSEDSAVYYCTAGFDYWGQGTTLTVSA
VL: DIQMNQSPSSLSASLGDTITITCHASQNINVWLGWFQQKPENIPKLLIYKASTLHTGVPSRFSGSGSGTVFTLTISSPQPEDIATYYCQQGQTYPLTFGAGTKLEIK
notes: Mouse monoclonal antibody tested as hybridoma culture supernatant and detected with HRP goat anti-mouse IgG
For the molecule B1, in experiment [1], the binding result was “binds”.

B2: 单链抗体C12 (anti-human cystatin C scFv C12) (scFv)
scFv: QVQLQQPGSELVRPGTSVKLSCRASGYTFTSYWMHWVKQRHGQGLEWLGNVDPGSGTTNYEENFKTKGTLTVDTSSSTVYMHLSSLTSEDSAVYYCTAGFDYWGQGTTLTVSAGGGGSGGGGSGGGGSDIQMNQSPSSLSASLGDTITITCHASQNINVWLGWFQQKPENIPKLLIYKASTLHTGVPSRFSGSGSGTVFTLTISSPQPEDIATYYCQQGQTYPLTFGAGTKLEIK
notes: Used HRP-labelled in the Western blot and colloidal-gold-labelled in the test card; also called C12-scFv-(HIS)6; C12-HRP
On to B2, for which the binding result in experiment [2] is “binds”.
